Article PMC4374960 (2015)

B1: CarDNt, the 179-residue N-terminal domain of Myxococcus xanthus CarD (in pKT25) [Myxococcus xanthus] / Mxβ_(19–148), M. xanthus RNA polymerase β subunit fragment spanning residues 19 to 148 (in pUT18C) [Myxococcus xanthus] (parent complex)
chain 1: MPEGSASLQLAVGDRVVYPNQGVCRVSAIDVKEVAGQKLTFVTMRREEDGAVVMVPEGKVLAIGVRKVASAEDVEAIFTFLRSDSDKADLDWKQRARTNLDRMTQGGIMGLAEVVKGLQVLSELRPLPTKERELYDNARHLLVTEVAAALGTAEVNAEDAIDIVLFPPGRERPKRTAAE
chain 2: AKIIDIPNLINIQKQSYEKFLQADIAADKREDLGLQGVFKSVFPIRDFNETSSLEFVSYHLERPKYDVDECHQRGMTYSAPIKVVVRLVVWDKDEETGAQSIRDVKEQEVYFGEIPLMTQNGTFIINGTE

Variants of: B1
Assay: BACTH analysis (β-Gal activity); Mxβ19–148 mutants in pUT18C; CarDNt in pKT25; mean and standard error of three independent experiments; parent: 2.6e+03; read off a plot

| Variant | response |
| --- | --- |
| chain 2 AKIIDIPNLINIQKQSYEKFLQADIAADKREDLGLQGVFKSVFPIRDFNETSSLEFVSYHLERPKYDVDECHQRGMTYSAPIKVVVRLVVWDKDEETGAQSIRDVAEQEVYFGEIPLMTQNGTFIINGTE | ~2100 |
| chain 2 AKIIDIPNLINIQKQSYEKFLQADIAADKREDLGLQGVFKSVFPIRDFNETSSLEFVSYHLERPKYDVDECHQRGMTYSAPIKVVVRLVVWDKDEETGAQSIRAVKEQEVYFGEIPLMTQNGTFIINGTE | ~1800 |
| chain 2 AKIIDIPNLINIQKQSYEKFLQADIAADKREDLGLQGVFKSVFPIRDFNETSSLEFVSYHLERPKYDVDECHQRGMTYSAPIKVVVRLVVWDKDEETGAQSIRDAKEQEVYFGEIPLMTQNGTFIINGTE | ~610 |
| chain 2 AKIIDIPNLINIQKQSYEKFLQADIAADKREDLGLQGVFKSVFPIRDFNETSSLEFVSYHLERPKYDVDECHQRGMTYSAPIKVVVRLVVWDKDEETGAQSIRDVKAQEVYFGEIPLMTQNGTFIINGTE | ~90 |

Variants of: B1
Assay: BACTH analysis (β-Gal activity); CarDNt mutants in pKT25; Mxβ19–148 in pUT18C; mean and standard error of three independent experiments; parent: 2.7e+03; read off a plot

| Variant | response |
| --- | --- |
| chain 1 MPEGSASLQLAVGDRVVYPNQGVCRVSAIDVKEVAGQKLTFVTMRREEDGAVVMVAEGKVLAIGVRKVASAEDVEAIFTFLRSDSDKADLDWKQRARTNLDRMTQGGIMGLAEVVKGLQVLSELRPLPTKERELYDNARHLLVTEVAAALGTAEVNAEDAIDIVLFPPGRERPKRTAAE | ~230 |
| chain 1 MPEGSASLQLAVGDRVVYPNQGVCRVSAIDVKEVAGQKLTFVTMRREEDGAVVAVPEGKVLAIGVRKVASAEDVEAIFTFLRSDSDKADLDWKQRARTNLDRMTQGGIMGLAEVVKGLQVLSELRPLPTKERELYDNARHLLVTEVAAALGTAEVNAEDAIDIVLFPPGRERPKRTAAE | ~130 |
| chain 1 MPEGSASLQLAVGDRVVYPNQGVCRVSAIDVKEVAGQKLTAVTMRREEDGAVVMVPEGKVLAIGVRKVASAEDVEAIFTFLRSDSDKADLDWKQRARTNLDRMTQGGIMGLAEVVKGLQVLSELRPLPTKERELYDNARHLLVTEVAAALGTAEVNAEDAIDIVLFPPGRERPKRTAAE | ~130 |
